According to IntAct's records for PubMed 22751141:

Molecular target: GATA3, P23771-2
Sequence (P23771 other isoform, or with tags, fused parts or gaps): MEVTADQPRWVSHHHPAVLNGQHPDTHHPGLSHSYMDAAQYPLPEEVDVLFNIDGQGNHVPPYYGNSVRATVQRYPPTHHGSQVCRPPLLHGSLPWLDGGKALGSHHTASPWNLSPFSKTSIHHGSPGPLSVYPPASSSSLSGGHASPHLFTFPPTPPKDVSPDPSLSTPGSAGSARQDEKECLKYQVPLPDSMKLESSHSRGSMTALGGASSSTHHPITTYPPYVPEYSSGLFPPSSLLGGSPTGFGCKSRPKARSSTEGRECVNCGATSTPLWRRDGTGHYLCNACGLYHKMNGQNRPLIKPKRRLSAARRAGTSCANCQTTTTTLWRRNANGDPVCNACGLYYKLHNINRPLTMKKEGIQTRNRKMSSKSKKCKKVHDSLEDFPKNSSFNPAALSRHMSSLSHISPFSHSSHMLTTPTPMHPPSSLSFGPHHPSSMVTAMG

| effect of a mutation on the interaction | Substance |
| --- | --- |
| decreasing interaction | Transcription factor SOX-4 (Mus musculus), Q06831 F66A;M67A |
| decreasing interaction | Transcription factor SOX-4 (Mus musculus), Q06831 R61A;P62A |
